According to PMC12416549 (2024):
Substitutions are numbered along the chain they refer to. In names and notes the source's numbering stands.

T1: TNFR1 (Homo sapiens, UniProt P19438)
T1 chain: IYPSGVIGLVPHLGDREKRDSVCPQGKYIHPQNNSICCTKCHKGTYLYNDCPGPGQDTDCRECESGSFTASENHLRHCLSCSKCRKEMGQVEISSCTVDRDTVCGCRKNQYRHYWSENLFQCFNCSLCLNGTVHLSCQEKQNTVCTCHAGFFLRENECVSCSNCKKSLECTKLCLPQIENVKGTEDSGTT

B1: E62K (designed binder)
chain: SMEEEVEKAAKEYEKKKKEAIEKHLEKLKAKDKEAAERFLKELEEAAKEYAKDEAKTMSEEKAKRRAKKYKEKVLLSELSEEEQKEIKEAEEKLVRTILKYVEEAAK
B2: A10M (designed binder)
chain: B1 chain with A10M, K62E
B3: A10R (designed binder)
chain: B1 chain with A10R, K62E
B4: E61P (designed binder)
chain: B1 chain with E61P, K62E
B5: K8E (designed binder)
chain: B1 chain with K8E, K62E
B6: L75I (designed binder)
chain: B1 chain with K62E, L75I
B7: A20L (designed binder)
chain: B1 chain with A20L, K62E
B8: K8L (designed binder)
chain: B1 chain with K8L, K62E
B9: V95G (designed binder)
chain: B1 chain with K62E, V95G
B10: E3Y (designed binder)
chain: B1 chain with E3Y, K62E
B11: A105P (designed binder)
chain: B1 chain with K62E, A105P
B12: K33T (designed binder)
chain: B1 chain with K33T, K62E
B13: K73L (designed binder)
chain: B1 chain with K62E, K73L
B14: E42P (designed binder)
chain: B1 chain with E42P, K62E
B15: A9R (designed binder)
chain: B1 chain with A9R, K62E
B16: K17G (designed binder)
chain: B1 chain with K17G, K62E
B17: E14H (designed binder)
chain: B1 chain with E14H, K62E
B18: A55P (designed binder)
chain: B1 chain with A55P, K62E
B19: Y101M (designed binder)
chain: B1 chain with K62E, Y101M
B20: E92I (designed binder)
chain: B1 chain with K62E, E92I
B21: K8D (designed binder)
chain: B1 chain with K8D, K62E
B22: A67Q (designed binder)
chain: B1 chain with K62E, A67Q
B23: K107H (designed binder)
chain: B1 chain with K62E, K107H
B24: L25P (designed binder)
chain: B1 chain with L25P, K62E
B25: E103M (designed binder)
chain: B1 chain with K62E, E103M
B26: K17D (designed binder)
chain: B1 chain with K17D, K62E
B27: K27L (designed binder)
chain: B1 chain with K27L, K62E
B28: E82V (designed binder)
chain: B1 chain with K62E, E82V
B29: R38S (designed binder)
chain: B1 chain with R38S, K62E
B30: L76R (designed binder)
chain: B1 chain with K62E, L76R
B31: D53I (designed binder)
chain: B1 chain with D53I, K62E
B32: E72H (designed binder)
chain: B1 chain with K62E, E72H
B33: L94G (designed binder)
chain: B1 chain with K62E, L94G
B34: K107P (designed binder)
chain: B1 chain with K62E, K107P
B35: A9V (designed binder)
chain: B1 chain with A9V, K62E
B36: I87S (designed binder)
chain: B1 chain with K62E, I87S
B37: K100V (designed binder)
chain: B1 chain with K62E, K100V
B38: A30R (designed binder)
chain: B1 chain with A30R, K62E
B39: E60N (designed binder)
chain: B1 chain with E60N, K62E
B40: A47L (designed binder)
chain: B1 chain with A47L, K62E
B41: S1F (designed binder)
chain: B1 chain with S1F, K62E
B42: E82K (designed binder)
chain: B1 chain with K62E, E82K
B43: Y13Q (designed binder)
chain: B1 chain with Y13Q, K62E

Molecular target: T1, TNFR1
Test: yeast display SC50

Binder	apparent Kd (screen)
B1	0.49 nM
B2	2.73 nM
B3	0.446 nM
B4	0.869 nM
B5	1.54 nM
B6	0.79 nM
B7	0.405 nM
B8	0.718 nM
B9	5.84 nM
B10	5.84 nM
B11	0.653 nM
B12	0.49 nM
B13	7.07 nM
B14	4.83 nM
B15	0.335 nM
B16	2.73 nM
B17	2.73 nM
B18	12.5 nM
B19	2.25 nM
B20	12.5 nM
B21	1.4 nM
B22	11.4 nM

Binder	apparent Kd (screen)
B23	1.86 nM
B24	8.56 nM
B25	0.593 nM
B26	5.31 nM
B27	1.16 nM
B28	0.539 nM
B29	2.73 nM
B30	7.07 nM
B31	12.5 nM
B32	2.73 nM
B33	2.25 nM
B34	0.956 nM
B35	0.49 nM
B36	12.5 nM
B37	1.4 nM
B38	0.79 nM
B39	3.63 nM
B40	13.8 nM
B41	4.39 nM
B42	0.446 nM
B43	1.69 nM
